{
  "source": "patent US20030157712",
  "target": "GST-EphB1cy, self-phosphorylated in vitro (+ATP) (UniProt P54762)",
  "sequence (P54762 564-984)": "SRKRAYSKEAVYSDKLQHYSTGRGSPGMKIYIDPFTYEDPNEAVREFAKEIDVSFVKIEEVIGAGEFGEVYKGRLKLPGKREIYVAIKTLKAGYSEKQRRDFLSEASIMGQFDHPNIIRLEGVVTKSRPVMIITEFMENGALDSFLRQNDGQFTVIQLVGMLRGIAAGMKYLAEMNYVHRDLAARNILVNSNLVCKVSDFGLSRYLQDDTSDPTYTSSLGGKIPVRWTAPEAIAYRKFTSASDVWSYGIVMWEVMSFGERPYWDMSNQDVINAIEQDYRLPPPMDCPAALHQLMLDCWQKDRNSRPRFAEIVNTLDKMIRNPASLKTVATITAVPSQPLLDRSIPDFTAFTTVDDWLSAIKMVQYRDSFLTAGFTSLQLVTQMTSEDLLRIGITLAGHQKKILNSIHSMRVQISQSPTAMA",
  "data": [
    {"substance": "purified recombinant LMW-PTP (A isoform)", "values": [
      {"measurement": "in vitro tyrosine phosphorylation of LMW-PTP", "value": "EphB1 receptor tyrosine kinase phosphorylates LMW-PTP in vitro"}
    ]}
  ]
}
